First the molecules themselves.
B6: truncated RECQL5 protein (11–453) (domain or fragment, UniProt O94762 11-453, looked up)
chain: DPERRVRSTLKKVFGFDSFKTPLQESATMAVVKGNKDVFVCMPTGAGKSLCYQLPALLAKGITIVVSPLIALIQDQVDHLLTLKVRVSSLNSKLSAQERKELLADLEREKPQTKILYITPEMAASSSFQPTLNSLVSRHLLSYLVVDEAHCVSQWGHDFRPDYLRLGALRSRLGHAPCVALTATATPQVQEDVFAALHLKKPVAIFKTPCFRANLFYDVQFKELISDPYGNLKDFCLKALGQEADKGLSGCGIVYCRTREACEQLAIELSCRGVNAKAYHAGLKASERTLVQNDWMEEKVPVIVATISFGMGVDKANVRFVAHWNIAKSMAGYYQESGRAGRDGKPSWCRLYYSRNDRDQVSFLIRKEVAKLQEKRGNKASDKATIMAFDALVTFCEELGCRHAAIAKYFGDALPACAKGCDHCQNPTAVRRRLEALERSSSW
notes: also called RECQ5; DNA helicase RECQL5

Where two headings read alike, the source gives them in different places.

Experiment [1] has as its target B6.
Experiment [2] has as its target B6. In words: BLI. To be noted: both partners purified.
The target of experiment [3] is hen egg white lysozyme (Gallus gallus, UniProt P00698).
Sequence of hen egg white lysozyme (P00698 19-147): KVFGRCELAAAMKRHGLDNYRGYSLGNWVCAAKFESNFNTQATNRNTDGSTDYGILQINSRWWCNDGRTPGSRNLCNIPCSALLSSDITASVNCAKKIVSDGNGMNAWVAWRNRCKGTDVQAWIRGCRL
Experiment [4] addresses T1, superfolder GFP (Aequorea victoria, engineered …, stabilised).
T1 construct: also called sfGFP
In words: BLI. The following applies: both partners purified.

The target in experiment [5] is SARS-CoV-2 receptor-binding domain (RBD) (SARS-CoV-2, ancestral strain assumed, UniProt P0DTC2, glycans removed; complex for cryo-EM PEGylated with NHS-PEG4-azide).
Experiment [6] has as its target T2, anti-RECQL5 homoDiGb5-006.
T2 construct: also called homoDiGb Gb5-006
In words: BLI. The following applies: both partners purified.

T1 sequence (P42212 other isoform, or with tags, fused parts or gaps, change not shown): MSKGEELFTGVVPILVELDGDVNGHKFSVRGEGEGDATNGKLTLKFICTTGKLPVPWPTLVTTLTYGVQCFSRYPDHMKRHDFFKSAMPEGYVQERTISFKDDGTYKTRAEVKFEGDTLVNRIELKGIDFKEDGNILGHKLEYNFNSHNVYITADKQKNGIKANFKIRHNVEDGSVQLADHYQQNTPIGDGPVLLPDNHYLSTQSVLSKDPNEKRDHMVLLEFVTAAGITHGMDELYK

B1: Nb5-006 (VHH)
VHH: VQLVENSGGGLVQAGGSLRLSCAASGSIFSINRMTWYRQAPGKEREWVAAITSGGSTNYADSVKGRFTISRDNAENTVYLQMNSLKPEDTAVYYCEAYGTYTLAPTGEGEYDDYWGQGTQVTVS
The Kd is the free concentration of one partner at which half of the binding sites on the other are occupied at equilibrium, for simple one-to-one binding. A lower Kd goes with tighter binding. In turn, B1 returned a Kd in experiment [1] of 1.2 µM.

B2: anti-RECQL5 monomeric Gb5-006 (VHH)
VHH: QVQLVENGGGCVKAGGSLRLSCAASGSIFSINRMTWYRQAPGKEREWVAAITSGGSTNYADSVKGRFTISRDNAENTVYLQMNSLKPEDTAVYYCEAYGTYTLAPTGEGEYDDYWGQGTQVMVS
notes: also called G5-006; Gb equivalent
In the case of B2, in experiment [2], binding was characterised by a dissociation constant (Kd) of 9 µM. In other words, the single-digit micromolar range.

B3: GbLysozyme (VHH)
VHH: DVQLVENGGGCVKAGGSLRLSCAASGSTDSIEYMTWFRQAPGKAREGVAALYTHTGNTYYTDSVKGRFTISQDKAKNMAYLRMDSVKSEDTAIYTCGATRKYVPVRFALDQSSYDYWGQGTQVMVSS
With B3, the binding result in experiment [3] is reported as “binds”.

B4: anti-sfGFP monomeric GbEnhancer (VHH)
VHH: QVQLVENGGACVKPGGSLRLSCAASGFPVNRYSMRWYRQAPGKEREWVAGMSSAGDRSSYEDSVKGRFTISRDDARNTVYLQMNSLKPEDTAVYYCNVNVGFEYWGQGTQVMVS
notes: also called GbGFP; sfGFP Gb
In experiment [4], B4 returned a Kd of 0.005 µM.

B5: GbRBD1 (VHH)
VHH: QVQLVENGGGCVKAGGSLRLSCAVSGRTFSTAAMGWFRQAPGKEREFVAAIRWSGGSAYYADSVKGRFTISRDKAKNTVYLQMNSLKYEDTAVYYCAQTRVTRSLLSDYATWPYDYWGQGTQVMVS
As for B5, in experiment [5], the binding result is reported as “binds”.

Regarding B6, binding in experiment [6] was put at a Kd of 23.4 µM.

B7: anti-RECQL5 wild-type nanobody (VHH)
VHH: QVQLVESGGGLVQAGGSLRLSCAASGSIFSINRMGWYRQAPGKQRELVAAITSGGSTNYADSVKGRFTISRDNAKNTVYLQMNSLKPEDTAIYYCEAYGTYTLAPTGEGEYDDYWGQGTQVTVS
notes: also called RECQL5 nanobody; anti-RECQL5 nanobody
As for B7, binding in experiment [2] was put at a Kd of 1.2 µM. That is a single-digit micromolar value.

The record behind these values is PMC12435805 (Nature Chemical Biology, 2025).
